Sequences and labels used below:
T1: KPC1Δ967-1043 (FLAG-tagged) (Homo sapiens (Human), UniProt Q5XPI4 1-1314)
T1 construct: also called KPC1 species vii
T1 sequence: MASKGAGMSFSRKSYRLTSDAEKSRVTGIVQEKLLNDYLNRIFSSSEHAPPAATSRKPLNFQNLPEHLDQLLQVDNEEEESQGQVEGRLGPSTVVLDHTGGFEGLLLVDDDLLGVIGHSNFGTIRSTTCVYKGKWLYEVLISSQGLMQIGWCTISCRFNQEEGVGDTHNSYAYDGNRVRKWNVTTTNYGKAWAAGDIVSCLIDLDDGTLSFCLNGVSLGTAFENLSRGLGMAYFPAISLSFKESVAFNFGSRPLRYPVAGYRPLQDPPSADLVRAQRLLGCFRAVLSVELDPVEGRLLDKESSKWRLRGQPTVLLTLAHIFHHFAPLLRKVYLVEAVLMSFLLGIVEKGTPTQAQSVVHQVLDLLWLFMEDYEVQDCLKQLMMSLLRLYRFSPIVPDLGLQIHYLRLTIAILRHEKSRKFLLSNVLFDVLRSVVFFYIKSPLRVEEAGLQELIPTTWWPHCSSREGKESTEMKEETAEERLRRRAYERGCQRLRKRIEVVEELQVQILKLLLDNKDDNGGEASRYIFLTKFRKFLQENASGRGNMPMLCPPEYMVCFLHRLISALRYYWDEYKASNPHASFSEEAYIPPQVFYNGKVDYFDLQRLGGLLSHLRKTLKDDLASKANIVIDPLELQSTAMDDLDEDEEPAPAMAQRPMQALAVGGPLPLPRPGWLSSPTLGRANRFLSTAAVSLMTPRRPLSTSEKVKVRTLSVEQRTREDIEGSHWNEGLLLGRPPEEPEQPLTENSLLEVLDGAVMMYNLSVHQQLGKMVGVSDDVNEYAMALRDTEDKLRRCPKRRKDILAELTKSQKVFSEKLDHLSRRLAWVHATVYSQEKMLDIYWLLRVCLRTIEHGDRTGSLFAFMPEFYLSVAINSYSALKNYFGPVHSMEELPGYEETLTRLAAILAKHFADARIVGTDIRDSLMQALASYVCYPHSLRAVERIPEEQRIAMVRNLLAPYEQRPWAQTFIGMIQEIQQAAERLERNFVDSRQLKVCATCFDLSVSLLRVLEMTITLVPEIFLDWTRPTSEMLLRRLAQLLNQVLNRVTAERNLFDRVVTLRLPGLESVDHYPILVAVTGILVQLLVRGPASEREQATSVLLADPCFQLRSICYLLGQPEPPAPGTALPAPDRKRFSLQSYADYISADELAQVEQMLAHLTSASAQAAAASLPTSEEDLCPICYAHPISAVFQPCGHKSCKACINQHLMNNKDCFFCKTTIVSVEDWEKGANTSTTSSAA

B1: KPC1Δ1-1017 (FLAG-tagged) (enzyme)
chain: LLQQGPDVAPSFLNSVLNQLNWAFSEFIGMIQEIQQAAERLERNFVDSRQLKVCATCFDLSVSLLRVLEMTITLVPEIFLDWTRPTSEMLLRRLAQLLNQVLNRVTAERNLFDRVVTLRLPGLESVDHYPILVAVTGILVQLLVRGPASEREQATSVLLADPCFQLRSICYLLGQPEPPAPGTALPAPDRKRFSLQSYADYISADELAQVEQMLAHLTSASAQAAAASLPTSEEDLCPICYAHPISAVFQPCGHKSCKACINQHLMNNKDCFFCKTTIVSVEDWEKGANTSTTSSAA
notes: Lacks amino acids 1-1017; also called KPC1 species x
B2: RLW-KPC1 Δ 1-1253 (enzyme)
chain: RLWCPICYAHPISAVFQPCGHKSCKACINQHLMNNKDCFFCKTTIVSVEDWEKGANTSTTSSAA
notes: also called KPC1 species xv
B3: WIL-KPC1 Δ 1-1253 (enzyme)
chain: B2 chain with R1W, L2I, W3L
notes: also called KPC1 species xx
B4: KPC1 Δ 1-1253 (enzyme)
chain: CPICYAHPISAVFQPCGHKSCKACINQHLMNNKDCFFCKTTIVSVEDWEKGANTSTTSSAA
notes: also called KPC1 species xvi
B5: LVRLW-KPC1 Δ 1-1253 (enzyme)
chain: LVRLWCPICYAHPISAVFQPCGHKSCKACINQHLMNNKDCFFCKTTIVSVEDWEKGANTSTTSSAA
notes: also called KPC1 species xiii
B6: WILVR-KPC1 Δ 1-1253 (enzyme)
chain: B5 chain with L1W, V2I, R3L, L4V, W5R
notes: also called KPC1 species xviii
B7: ILVRLW-KPC1 Δ 1-1253 (enzyme)
chain: ILVRLWCPICYAHPISAVFQPCGHKSCKACINQHLMNNKDCFFCKTTIVSVEDWEKGANTSTTSSAA
notes: also called KPC1 species xii
B8: WILVRL-KPC1 Δ 1-1253 (enzyme)
chain: B7 chain with I1W, L2I, V3L, R4V, L5R, W6L
notes: also called KPC1 species xvii
B9: KPC1Δ1-973 (FLAG-tagged) (enzyme)
chain: WRGCGFGYRYTRLPHLLKTKLEDANLPSLQKPCPSTLLQQHMADLLQQGPDVAPSFLNSVLNQLNWAFSEFIGMIQEIQQAAERLERNFVDSRQLKVCATCFDLSVSLLRVLEMTITLVPEIFLDWTRPTSEMLLRRLAQLLNQVLNRVTAERNLFDRVVTLRLPGLESVDHYPILVAVTGILVQLLVRGPASEREQATSVLLADPCFQLRSICYLLGQPEPPAPGTALPAPDRKRFSLQSYADYISADELAQVEQMLAHLTSASAQAAAASLPTSEEDLCPICYAHPISAVFQPCGHKSCKACINQHLMNNKDCFFCKTTIVSVEDWEKGANTSTTSSAA
notes: also called KPC1 species ix
B10: KPC1Δ1-1042 (FLAG-tagged) (enzyme)
chain: EFIGMIQEIQQAAERLERNFVDSRQLKVCATCFDLSVSLLRVLEMTITLVPEIFLDWTRPTSEMLLRRLAQLLNQVLNRVTAERNLFDRVVTLRLPGLESVDHYPILVAVTGILVQLLVRGPASEREQATSVLLADPCFQLRSICYLLGQPEPPAPGTALPAPDRKRFSLQSYADYISADELAQVEQMLAHLTSASAQAAAASLPTSEEDLCPICYAHPISAVFQPCGHKSCKACINQHLMNNKDCFFCKTTIVSVEDWEKGANTSTTSSAA
notes: also called KPC1 species v
B11: p105-HA (other, UniProt P19838 1-968, looked up)
chain: MAEDDPYLGRPEQMFHLDPSLTHTIFNPEVFQPQMALPTDGPYLQILEQPKQRGFRFRYVCEGPSHGGLPGASSEKNKKSYPQVKICNYVGPAKVIVQLVTNGKNIHLHAHSLVGKHCEDGICTVTAGPKDMVVGFANLGILHVTKKKVFETLEARMTEACIRGYNPGLLVHPDLAYLQAEGGGDRQLGDREKELIRQAALQQTKEMDLSVVRLMFTAFLPDSTGSFTRRLEPVVSDAIYDSKAPNASNLKIVRMDRTAGCVTGGEEIYLLCDKVQKDDIQIRFYEEEENGGVWEGFGDFSPTDVHRQFAIVFKTPKYKDINITKPASVFVQLRRKSDLETSEPKPFLYYPEIKDKEEVQRKRQKLMPNFSDSFGGGSGAGAGGGGMFGSGGGGGGTGSTGPGYSFPHYGFPTYGGITFHPGTTKSNAGMKHGTMDTESKKDPEGCDKSDDKNTVNLFGKVIETTEQDQEPSEATVGNGEVTLTYATGTKEESAGVQDNLFLEKAMQLAKRHANALFDYAVTGDVKMLLAVQRHLTAVQDENGDSVLHLAIIHLHSQLVRDLLEVTSGLISDDIINMRNDLYQTPLHLAVITKQEDVVEDLLRAGADLSLLDRLGNSVLHLAAKEGHDKVLSILLKHKKAALLLDHPNGDGLNAIHLAMMSNSLPCLLLLVAAGADVNAQEQKSGRTALHLAVEHDNISLAGCLLLEGDAHVDSTTYDGTTPLHIAAGRGSTRLAALLKAAGADPLVENFEPLYDLDDSWENAGEDEGVVPGTTPLDMATSWQVFDILNGKPYEPEFTSDDLLAQGDMKQLAEDVKLQLYKLLEIPDPDKNWATLAQKLGLGILNNAFRLSPAPSKTLMDNYEVSGGTVRELVEALRQMGYTEAIEVIQAASSPVKTTSQAHSLPLSPASTRQQIDELRDSDSVCDSGVETSFRKLSFTESLTSGASLLTLNKMPHDYGQEGPLEGKI
notes: Co-expressed with FLAG-tagged KPC1 species in HEK293T cells and detected with anti-NF-κB1 after anti-FLAG immunoprecipitation; also called NF-κB1 p105; NF-kB1 p105; not shown: HA tag
B12: VRLW-KPC1 Δ 1-1253 (enzyme)
chain: VRLWCPICYAHPISAVFQPCGHKSCKACINQHLMNNKDCFFCKTTIVSVEDWEKGANTSTTSSAA
notes: also called KPC1 species xiv
B13: WILV-KPC1 Δ 1-1253 (enzyme)
chain: B12 chain with V1W, R2I, W4V
notes: also called KPC1 species xix

Where a chain is given by its changes, count along the chain named.

The assay “p105-HA” deals with B11. The assay is described as follows: co-immunoprecipitation (anti-FLAG) from HEK293T cells, western blot. The method, then: (§1) HEK293T cells were transiently transfected with the various KPC1 species along with p105-HA using the j etPEI reagent. 48 hours after transfection, the cells were harvested and lysed with RIPA buffer [150 mM NaCl, 0.5% sodium deoxycholate, 50 mM Tris-HCl (pH 8.0), 0.1% SDS, and 1% NP-40, supplemented with freshly added protease inhibitors mixture]. KPC1 species proteins were immunoprecipitated with immobilized anti-FLAG, with subsequent washing of the beads five times with RIPA buffer. The immunoprecipitated proteins were resolved by SDS-PAGE (10%, FIGS. 1A, 1B, 2A and 2B, with a gel gradient, of 4-20%; FIGS. 3A and 3B), and blotted onto nitrocellulose (FIGS. 1A, 1B, 2A and 2B) or PVDF (FIGS. 3A and 3B) membranes. p105 and KPC1 species were visualized using anti-NF-kB1 or anti-FLAG antibodies, respectively.
(§2) Identification of the region of KPC1 that is responsible for the interaction with p105. In order to identify the region of KPC1 that is responsible for the interaction with p105, several truncated segments of the DNA sequence of the KPC1 protein were cloned. The truncated segments were inserted into the pCAGGS expression vector to analyze their interaction with p105 by co-immunoprecipitation (Co-IP) from cells. HEK 293T cells were transfected with cDNAs coding for p105-HA, along with different fragments of KPC1 (FIG. 1A). Species of KPC1 were immunoprecipitated using an immobilized anti-Flag antibody. The precipitated proteins were resolved via SDS-PAGE and detected by Western blot using anti NF-κB1 and anti-FLAG antibodies.

Assay [1] deals with T1, KPC1Δ967-1043 (FLAG-tagged). The description is as above. The method, then:
as §1, §2

For B1, the binding result in the assay with p105-HA is listed as “no binding”.

In the case of B2, in the assay with p105-HA, the binding result is reported as “no binding”.

For the molecule B3, the binding result with p105-HA was “no binding”.

For B4, the binding result with p105-HA is “no binding”.

With B5, in the assay with p105-HA, the binding result is given as “no binding”.

Consider B6, for which the binding result with p105-HA was “no binding”.

B7: in the assay with p105-HA, the binding result is “no binding”.

As for B8, in the assay with p105-HA, the binding result is reported as “no binding”.

As to B9, in the assay with p105-HA, the binding result is “no binding”.

As for B10, in the assay with p105-HA, the binding result is “no binding”.

Take B11: in assay [1], the binding result was “no binding”.

For B12, the binding result with p105-HA is on record as “no binding”.

With B13, the binding result in the assay with p105-HA is “no binding”.

Source of the values: patent US20210348152A1 (TECHNION RESEARCH AND DEVELOPMENT FOUNDATION, published 2021).
